Experimental findings from patent US12428446B2, “Peptide compound or pharmaceutically acceptable salt thereof” (Eyebio Korea, priority 2019, dated 2025) are described below.

Primed or numbered codes have the meaning given here. Where no end group is shown, it is not given here. [ ]: non-standard residue; d: D form. Pro(cis-4-F) = O=C(O)[C@@H]1C[C@H](F)CN1; Pro(4,4-Me2) = CC1(C)CN[C@H](C(=O)O)C1; Asu′ = aspartimide (aminosuccinimide); Hyp = O=C(O)[C@@H]1C[C@@H](O)CN1

Data set [1] is described as follows: Evaluation of dissolution stability (content change on storage in dissolved state). As to conditions: 1 mg/1 ml dissolved state, 40° C. and RH 75%. It counts as physicochemical.
Data set [2] deals with IL-1β secretion, Raw 264.7 cells. The experiment in a line: Anti-inflammatory efficacy: IL-1β ELISA in LPS-stimulated Raw 264.7 macrophages. It counts as cell-based, mouse. As to conditions: for IL-1β level increased by LPS: 1 h pretreatment, LPS 1 μg/ml 24 h; for anti-inflammatory effect by regulating the secretion of IL-1β: summary, concentration not given. The protocol: (§1) An anti-inflammatory efficacy was evaluated for representative examples of the above examples. Specifically, in order to confirm whether Examples 10, 32, 41, 55, 59 and 91, which are representative examples of 5 amino acid residues, Examples 11 and 30, which are representative examples of 6 amino acid residues, Example 86, which is a representative example of 7 amino acid residues, and Examples 103 and 104, which are representative examples of 8 amino acid residues, have an anti-inflammatory effect, a change in the secretion amount of inflammatory cytokines was confirmed by enzyme-linked immunosorbent assay (ELISA) using Raw 264.7 cells, which are macrophage (monocyte) cell lines.
(§2) Specifically, the Examples were diluted in Raw264.7 cells (Korean Cell Line Bank, 40071) at a concentration of 10 nM, 100 nM, 1 μM, and 10 μM, respectively, and pretreated for 1 hour, and then LPS (Sigma, L6529) at a concentration of 1 μg/ml was added to induce an inflammatory response. After 24 hours of induction, the cell culture supernatant was collected and analyzed. Enzyme-linked immunosorbent assay was performed using Mouse IL-6 Quantikine ELISA Kit (R&D systems, M6000B), TNF-alpha Quantikine ELISA Kit (R&D systems, MTA00B), Mouse IL-1 beta/IL-1F2 Quantikine ELISA Kit (R&D systems, MLB00C) in accordance with the manufacturer's manual.
For orientation: In an ELISA, binding on a coated surface is turned into a signal by an enzyme label.

Data set [3] relates to TNFα secretion, Raw 264.7 cells. The experiment in a line: Anti-inflammatory efficacy: TNFα ELISA in LPS-stimulated Raw 264.7 macrophages. As to conditions: for anti-inflammatory activity by regulating the secretion of TNFα: summary, concentration not given; for TNFα level increased by LPS: 1 h pretreatment, LPS 1 μg/ml 24 h. It counts as cell-based, mouse. Here is the method:
as §1, §2

Data set [4] deals with IL-6 secretion, Raw 264.7 cells. In words: Anti-inflammatory efficacy: IL-6 ELISA in LPS-stimulated Raw 264.7 macrophages. It counts as cell-based, mouse. As to conditions: for IL-6 level increased by LPS: 1 h pretreatment, LPS 1 μg/ml 24 h; for anti-inflammatory activity by regulating the secretion of IL-6: summary, concentration not given. Here is the method:
as §1, §2

For “4,4-dimethyl Pro-Gly-Gln-Asp-Gly ([Pro(4,4-Me2)]GQDG) [Example 55]”, in data set [1], the “Day 1 content (%)” value worked out at 94.34%, the “Day 3 content (%)” value amounted to 90.29%, the “Day 7 content (%)” value was determined as 81.00% and the “Initial content (%)” value was 97.82%. Besides, the “IL-1β level increased by LPS” value in data set [2] (100 nM peptide) is recorded as “significantly reduced”. Moreover, the “anti-inflammatory effect by regulating the secretion of IL-1β” value (“anti-inflammatory effect” below) in data set [2] was “significant anti-inflammatory effect”.
In the case of “Hyp-Gly-Gln-Glu-Leu-Leu-Ala ([Hyp]GQELLA) [Example 86]”, in data set [1], the “Day 1 content (%)” value came out at 97.40%, the “Day 3 content (%)” value is recorded as 97.77%, the “Day 7 content (%)” value turned out to be 97.55% and the “Initial content (%)” value was found to be 98.16%. The “IL-1β level increased by LPS” value in data set [2] (10 nM peptide) is on record as “significantly reduced”. The “IL-1β level increased by LPS” value in data set [2] (1 μM peptide) was “significantly reduced”. The “IL-1β level increased by LPS” value in data set [2] (10 μM peptide) is “significantly reduced”. The “anti-inflammatory effect” value in data set [2] is on record as “significant anti-inflammatory effect”.
With “Hyp-Gly-Gln-D Asp-Gly ([Hyp]GQ[dD]G) [Example 59]”, in data set [1], the “Day 1 content (%)” value was determined as 98.78%, the “Day 3 content (%)” value came out at 98.76%, the “Day 7 content (%)” value stood at 98.75% and the “Initial content (%)” value came out at 98.78%. Besides, the “IL-1β level increased by LPS” value in data set [2] (100 nM peptide) was “significantly reduced”. In addition, in data set [2], the “anti-inflammatory effect” value is “significant anti-inflammatory effect”. Besides, the “anti-inflammatory activity by regulating the secretion of TNFα” value (from here on “anti-inflammatory activity … of TNFα”) in data set [3] is reported as “significant anti-inflammatory activity”.
“Hyp-Gly-Gln-Asp-Gly ([Hyp]GQDG) [Example 10]”: in data set [1], the “Day 3 content (%)” value was 86.65%, the “Day 7 content (%)” value was found to be 78.68% and the “Initial content (%)” value is reported as 98.76%. Besides, in data set [2] (100 nM peptide), the “IL-1β level increased by LPS” value was “significantly reduced”. The “IL-1β level increased by LPS” value in data set [2] (1 μM peptide) is recorded as “significantly reduced”. For the same substance, in data set [2], the “anti-inflammatory effect” value is “significant anti-inflammatory effect”. Also, the “TNFα level increased by LPS” value in data set [3] (10 nM peptide) is “significantly reduced”. The “TNFα level increased by LPS” value in data set [3] (1 μM peptide) is “significantly reduced”. The “anti-inflammatory activity … of TNFα” value in data set [3] was “significant anti-inflammatory activity”.
For “Gln-Asu-Gly-Leu-Ala-Gly-Pro-Lys (Q[Asu′]GLAGPK) [Example 104]”, in data set [1], the “Day 1 content (%)” value was 96.52%, the “Day 3 content (%)” value came out at 93.78%, the “Day 7 content (%)” value came out at 93.01% and the “Initial content (%)” value was 94.22%. Also, the “TNFα level increased by LPS” value in data set [3] (10 nM peptide) is reported as “significantly reduced”. Also, the “anti-inflammatory activity … of TNFα” value in data set [3] is on record as “significant anti-inflammatory activity”.
For the substance “Hyp-Gly-Gln-Glu-Val ([Hyp]GQEV) [Example 91]”, in data set [1], the “Day 1 content (%)” value is listed as 99.10%, the “Day 3 content (%)” value was 98.74%, the “Day 7 content (%)” value is 98.68% and the “Initial content (%)” value amounted to 99.08%. For the same substance, the “IL-1β level increased by LPS” value in data set [2] (10 nM peptide) is on record as “reduced”. The “IL-1β level increased by LPS” value in data set [2] (100 nM peptide) is reported as “reduced”. In addition, the “IL-1β level increased by LPS” value in data set [2] (1 μM peptide) is listed as “reduced”. The “IL-1β level increased by LPS” value in data set [2] (10 μM peptide) is “reduced”. Also, the “anti-inflammatory effect” value in data set [2] was “significant anti-inflammatory effect”. Also, in data set [4] (1 μM peptide), the “IL-6 level increased by LPS” value is listed as “significantly reduced”. Further, the “anti-inflammatory activity by regulating the secretion of IL-6” value (from here on “anti-inflammatory activity … of IL-6”) in data set [4] is listed as “significant anti-inflammatory activity”.
Regarding QDGLAG [Example 30], in data set [1], the “Day 1 content (%)” value is 95.61%, the “Day 3 content (%)” value was 94.27%, the “Day 7 content (%)” value was found to be 91.57% and the “Initial content (%)” value is 96.44%. The “IL-6 level increased by LPS” value in data set [4] (10 nM peptide) is listed as “significantly reduced”. Moreover, in data set [4], the “anti-inflammatory activity … of IL-6” value was “significant anti-inflammatory activity”.
“Hyp-Gly-Gln-Asp-Gly-Leu ([Hyp]GQDGL) [Example 11]”: in data set [1], the “Day 1 content (%)” value was found to be 91.37%, the “Day 3 content (%)” value was 81.21%, the “Day 7 content (%)” value was determined as 64.19% and the “Initial content (%)” value stood at 98.96%. Moreover, the “TNFα level increased by LPS” value in data set [3] (10 μM peptide) is listed as “significantly reduced”. Also, the “anti-inflammatory activity … of TNFα” value in data set [3] is “significant anti-inflammatory activity”.
On to “Hyp-Gly-Gln-Asp-Leu ([Hyp]GQDL) [Example 32]”, for which, in data set [1], the “Day 1 content (%)” value amounted to 96.81%, the “Day 3 content (%)” value came to 93.57%, the “Day 7 content (%)” value was 90.50% and the “Initial content (%)” value was determined as 98.05%. Further, the “IL-1β level increased by LPS” value in data set [2] (10 nM peptide) was “significantly reduced”. In addition, in data set [2] (100 nM peptide), the “IL-1β level increased by LPS” value was “significantly reduced”. The “IL-1β level increased by LPS” value in data set [2] (1 μM peptide) is given as “significantly reduced”. Further, the “anti-inflammatory effect” value in data set [2] is reported as “significant anti-inflammatory effect”. In data set [4], the “anti-inflammatory activity … of IL-6” value was “significant anti-inflammatory activity”.
“cis-4F-Pro-Gly-Gln-Asp-Gly ([Pro(cis-4-F)]GQDG) [Example 41]”: in data set [1], the “Day 1 content (%)” value came out at 93.20%, the “Day 3 content (%)” value was 91.07%, the “Day 7 content (%)” value came out at 85.34% and the “Initial content (%)” value stood at 96.95%. In data set [2] (100 nM peptide), the “IL-1β level increased by LPS” value is on record as “significantly reduced”. In addition, the “anti-inflammatory effect” value in data set [2] is reported as “significant anti-inflammatory effect”. For the same substance, the “IL-6 level increased by LPS” value in data set [4] (1 μM peptide) is recorded as “significantly reduced”. For the same substance, in data set [4], the “anti-inflammatory activity … of IL-6” value is “significant anti-inflammatory activity”.
